The source of these data is PMC3274521, “Effects of a Non-Conservative Sequence on the Properties of β-glucuronidase from Aspergillus terreus Li-20” (PLoS ONE, 2012).

For the data set, the system named is CC1(C)[C@@H](O[C@H]2O[C@H](C(=O)O)[C@@H](O)[C@H](O)[C@H]2O[C@@H]2O[C@H](C(=O)O)[C@@H](O)[C@H](O)[C@H]2O)CC[C@]2(C)[C@H]3C(=O)C=C4[C@@H]5C[C@@](C)(C(=O)O)CC[C@]5(C)CC[C@@]4(C)[C@]3(C)CC[C@@H]12. Put plainly: purified protein. The settings on record: GL 0.375 to 4 mM, assay pH and temperature not stated for kinetics (optimum pH 6.6, 55 °C).

Usually Km stands for the concentration of substrate that gives half-maximal velocity. In general, Vmax refers to the rate approached at saturating substrate. Broadly, the kcat is the maximal rate divided by the concentration of active sites. What is called kcat/Km is the second-order rate constant that governs catalysis at low substrate concentration. In the case of “AtGUS-E (AtGUS) (Aspergillus terreus NIH2624)”, the Km was 12.9 mM, the Vmax came to 1.84 µmol/min/mg, the kcat is 29 s⁻¹ and the kcat/Km turned out to be 2240 M⁻¹ s⁻¹.
